Measured values as given in patent US20150190490A1 (ONCOTHERAPY SCIENCE, published 2015).

Legend:
[1] = biological target: T1, HLA-DR4 (DRB1*04:05) (human); experiment: concluded from IFN-gamma ELISPOT restriction analysis (peptide-pulsed L-DR4 cells, blocking mAbs)
T1 construct: whole, on cells; MHC class II molecule on mouse L-cell transfectants (L-DR4), donor PBMCs or DCs; also called L-DR4; L-DR0405
Description: (§1) On day 5, the DCs were cultured in the presence of the recombinant CDCA1 (50 micro g/ml) and OK432. The protein-loaded mature DCs were harvested on day 7, washed and used as stimulator in IFN-gamma ELISPOT assays. To determine restriction HLA molecules involved in antigen presentation, blocking of antigen-induced IFN-gamma production was investigated by adding anti-HLA-DR mAb (L243, Biolegend), anti-HLA-DP mAb, (B7/21, abcam), anti-human HLA-DQ mAb (SPV-L3, abcam), or anti-HLA class I mAb, (W6/32, abcam). All mAbs were used at a final concentration of 5 micro g/ml. All assessments of IFN-gamma ELISPOT assays were carried out in duplicate or triplicate, and results corresponded to mean values.
(§2) The immune responses of T-cells to PBMC, L-cells, and murine BM-DC pulsed with peptides (10 micro g/mL) or CDCA1 proteins-loaded human DCs (50 micro g/mL) were assessed by IFN-gamma ELISPOT assays (BD Biosciences, San Jose, Calif.) according to manufacturer's instructions and described previously (Zarour H M et al., Cancer Res 2000; 60:4946-52.). In briefly, peptide-pulsed PBMCs (3×10⁴/well), L-cells (5×10⁴/well), T2 cells (2×10⁴/well), C1R-A24 cells (2×10⁴/well), bone marrow-derived DCs (BM-DCs, 2×10⁴/well), or protein-loaded DCs (5×10³/well) were seeded in triplicate or duplicate in the ELISPOT plates as APCs or target cells. […] After incubation for 18 h, spot numbers were counted. […]

[2] = biological target: T2, HLA-DR15 (DRB1*15:02) (human); experiment: concluded from IFN-gamma ELISPOT restriction analysis (peptide-pulsed L-DR15 cells, blocking mAbs)
T2 construct: whole, on cells; MHC class II molecule on mouse L-cell transfectants (L-DR15) or donor PBMCs; also called L-DR15
Description: as §1, §2

binding result [1]: binds | binding result [2]: binds
B1: CDCA1 (55-78) long peptide (peptide)
peptide: IVYGIRLEHFYMMPVNSEVMYPHL
notes: Synthetic long peptide (purity >90%), pulsed onto antigen presenting cells; also called CDCA1 (55-78) LP; CDCA1 (55-78)-LP
